Assays:
[1] = target: natural Ara h 1 protein (peanut (Arachis hypogaea)); test: native gel or EMSA; native-PAGE of the purified allergen, nondenaturing; oligomeric state from the estimated molecular mass (Fig. S1)
[2] = target: recombinant Ara h 1 protein with N-terminal His-tag (peanut (Arachis hypogaea)); test: as above

Substance | stoichiometry N [1] | stoichiometry N [2]
natural Ara h 1 protein (natural protein) | 3 | –
recombinant Ara h 1 protein with N-terminal His-tag (natural protein) | – | 3

Reference: article PMC12718106
